Literature values as cited in article PMC10925690.
pKd: −log10 of the molar value.

Key:
[1] = target: FcγRIIIa V158 (Homo sapiens) (UniProt P08637); experiment: SPR; conditions: cited from earlier work
[2] = target: FcγRIIIa F158 (Homo sapiens) (UniProt P08637); experiment: SPR; conditions: cited from earlier work
FcγRIIIa F158 (Homo sapiens), sequence (P08637 17-254): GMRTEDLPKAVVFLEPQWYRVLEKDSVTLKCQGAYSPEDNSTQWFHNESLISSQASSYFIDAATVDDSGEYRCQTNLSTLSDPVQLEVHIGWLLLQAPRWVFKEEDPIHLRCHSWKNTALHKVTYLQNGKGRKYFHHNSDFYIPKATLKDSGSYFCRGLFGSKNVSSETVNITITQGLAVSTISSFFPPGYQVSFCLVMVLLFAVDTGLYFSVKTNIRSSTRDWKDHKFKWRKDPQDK

FcγRIIIa V158 (Homo sapiens), sequence (P08637 17-254): as above

IgG1 Fc Fc (from UniProt P01857)
pKd [1]: 6.40 | pKd [2]: 5.60
